Experimental data published in paper PMC2443190, “Novel Intermolecular Iterative Mechanism for Biosynthesis of Mycoketide Catalyzed by a Bimodular Polyketide Synthase” (PLoS Biology, 2008).

Molecular target: PKS12Δ1 E20S mutant protein (M. tuberculosis H37Rv) (UniProt I6XD69)

“PKS12Δ1 E20S mutant protein (from UniProt I6XD69 1-4151) (enzyme)” showed a catalytic turnover (fold decrease) of 5 and a product formation by quantitative radio-HPLC (fold decrease) greater than 5.
